We go through eight molecules from patent US6030780, “Purified Stat proteins and methods of purifying thereof” (The Rockefeller University).

The target of data set [1] is Stat1tc, phosphorylated Tyr701 (Homo sapiens) (UniProt P42224). The experiment in a line: EMSA. In general terms: A gel shift assay detects complexes by their altered migration in electrophoresis.
For data set [2], the target named is T1, Stat1alpha, phosphorylated Tyr701 (Homo sapiens, UniProt P42224 P42224:1-750). Nature of the data set: EMSA; binding unaffected by NEM alkylation; no difference from Stat1tc in off-rate. As to conditions: tags: baculovirus/Sf9; NEM-alkylated; phosphorylated in vitro by EGF-receptor kinase; chain copies: 2; label: 32P; protruding 5'-TCC. The source says:
Figure 3A: FIG. 3A. DNA binding of purified phosphorylated Stat1α (lane 1) and Stat1tc (lane 2) using as a probe the radioactively labelled cfosWT sequence. Binding reactions contained equimolar amounts of the respective proteins. The position of migration of the free DNA probe (free) and the protein/DNA complex (bound) is indicated. Note the presence of a slower migrating band only with the full length Stat1α, lane 1 (see also FIG. 3B). Figure 3B: FIG. 3B. Influence of cysteine alkylation on the DNA binding activity of Stat1α. A mixture of phosphorylated and unphosphorylated protein (0.23 µM final; ~15% phosphoprotein) was reacted in the presence of 0.8 mM DTT and the indicated concentrations of N-ethyl-maleimide (NEM) for 20 min at room temperature in a volume of 12.5 µl. The reaction was stopped with DTT (final concentration of 10 mM) followed by the addition of 1.5 pmoles of labelled probe (cfosM67). Samples were resolved on a 4.5% native polyacrylamide gel. (M) denotes the position of bromophenol blue (lower) and xylene cyanol (upper) markers.
Electrophoretic mobility shift assays (EMSA) (Fried and Crothers, 1981; Garner and Revzin, 1981) were used to test DNA binding of tyrosine phosphorylated Stat1α and Stat1tc. […] In addition, the DNA binding ability of homodimeric phosphorylated Stat1α or its truncated form was highly resistant to up to 2 Molar monovalent salt concentrations.

Data set [3] deals with T1, Stat1alpha, phosphorylated Tyr701. Nature of the data set: EMSA; 2x(dimer) complex stable, >30 min for partial displacement by 100x competitor. Particulars: tags: baculovirus/Sf9; NEM-alkylated; phosphorylated in vitro by EGF-receptor kinase; chain copies: 2; label: 32P; protruding 5'-TCC; two tandem sites. The procedure: Under the reaction conditions described above, each oligonucleotide (at 2×10^-9 M or otherwise stated) was mixed with 0.55×10^-9 M dimer of purified phosphorylated Stat1 protein. The reaction volume was scaled up to 100 μl. The reaction was incubated for 5–15 min at room temperature and for time zero, an aliquot (10 μl) was removed and loaded directly onto a pre-run polyacrylamide gel (see above). Afterwards, a 100×molar excess of homologous unlabelled DNA (in less than 1% of the reaction volume) was added. At subsequent time points (indicated in FIGS. 5C–5D, and 7) 10 μl aliquots were withdrawn and also loaded onto the running gel (at 10 V/cm). After entering the final time point (after 30–45 min), electrophoresis was continued at 20 V/cm until the unbound labelled DNA-fraction reached the bottom of the gel. Gels were dried, exposed to X-ray film and labelled protein/DNA complexes and unbound labelled DNA were quantitated as described above. The half life was determined from a semi-log plot of the numerical data (shifted radioactivity over shifted radioactivity at time zero versus time). For many sequences studied, the half life was too short ([…]) to be determined by EMSA. All experiments were performed at least twice with the different oligonucleotides. […]

Data set [4] has as its target Stat1beta, phosphorylated Tyr701 (Homo sapiens, UniProt P42224-2 P42224-2:1-712). The experiment in a line: EMSA; 2x(dimer) complex stabilized as with Stat1alpha. Particulars: tags: baculovirus/Sf9; NEM-alkylated; phosphorylated in vitro by EGF-receptor kinase; chain copies: 2; label: 32P; protruding 5'-TCC; two tandem sites.
Data set [5] deals with T1, Stat1alpha, phosphorylated Tyr701. Nature of the data set: EMSA; apparent Keq, dimer; 40 mM KCl, 10 mM MgCl2, 10 mM CaCl2, RT; complex half-life <0.5 min. Particulars: tags: baculovirus/Sf9; NEM-alkylated; phosphorylated in vitro by EGF-receptor kinase; chain copies: 2; label: 32P; protruding 5'-TCC.
Data set [6] has the same target. Nature of the data set: EMSA; stabilization indistinguishable from 10 bp spacing. Particulars: tags: baculovirus/Sf9; NEM-alkylated; phosphorylated in vitro by EGF-receptor kinase; chain copies: 2; label: 32P; protruding 5'-TCC; two tandem sites. The procedure:
Under the reaction conditions described above, each oligonucleotide (at 2×10^-9 M or otherwise stated) was mixed with 0.55×10^-9 M dimer of purified phosphorylated Stat1 protein. The reaction volume was scaled up to 100 μl. The reaction was incubated for 5–15 min at room temperature and for time zero, an aliquot (10 μl) was removed and loaded directly onto a pre-run polyacrylamide gel (see above). Afterwards, a 100×molar excess of homologous unlabelled DNA (in less than 1% of the reaction volume) was added. At subsequent time points (indicated in FIGS. 5C–5D, and 7) 10 μl aliquots were withdrawn and also loaded onto the running gel (at 10 V/cm). After entering the final time point (after 30–45 min), electrophoresis was continued at 20 V/cm until the unbound labelled DNA-fraction reached the bottom of the gel. Gels were dried, exposed to X-ray film and labelled protein/DNA complexes and unbound labelled DNA were quantitated as described above. The half life was determined from a semi-log plot of the numerical data (shifted radioactivity over shifted radioactivity at time zero versus time). For many sequences studied, the half life was too short ([…]) to be determined by EMSA. All experiments were performed at least twice with the different oligonucleotides.
Figure 7B: FIG. 7B. […]

T1 sequence (P42224 whole entry, one chain of several): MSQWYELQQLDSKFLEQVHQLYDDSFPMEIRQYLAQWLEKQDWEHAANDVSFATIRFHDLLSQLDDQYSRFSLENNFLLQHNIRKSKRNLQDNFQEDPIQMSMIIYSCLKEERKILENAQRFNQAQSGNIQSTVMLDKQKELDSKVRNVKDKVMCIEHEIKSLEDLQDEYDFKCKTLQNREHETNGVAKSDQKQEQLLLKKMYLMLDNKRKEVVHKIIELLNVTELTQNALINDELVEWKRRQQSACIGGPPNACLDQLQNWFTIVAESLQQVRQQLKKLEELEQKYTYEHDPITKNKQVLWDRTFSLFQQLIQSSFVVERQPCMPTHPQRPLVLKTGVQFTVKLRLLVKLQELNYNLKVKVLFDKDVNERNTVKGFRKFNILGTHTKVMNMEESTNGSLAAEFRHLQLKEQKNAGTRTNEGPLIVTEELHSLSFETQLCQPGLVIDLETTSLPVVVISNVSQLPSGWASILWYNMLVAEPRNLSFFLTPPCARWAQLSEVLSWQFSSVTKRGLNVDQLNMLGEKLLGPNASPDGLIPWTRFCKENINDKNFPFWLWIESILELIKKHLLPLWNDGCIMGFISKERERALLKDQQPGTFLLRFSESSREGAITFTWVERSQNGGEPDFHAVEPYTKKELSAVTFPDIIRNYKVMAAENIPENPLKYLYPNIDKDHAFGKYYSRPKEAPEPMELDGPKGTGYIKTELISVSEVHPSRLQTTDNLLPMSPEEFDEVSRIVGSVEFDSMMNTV
Chain of Stat1tc, phosphorylated Tyr701 (Homo sapiens) (P42224 whole entry): as the sequence (P42224 whole entry, one chain of several) above
Chain of Stat1beta, phosphorylated Tyr701 (P42224 1-712, one chain of several): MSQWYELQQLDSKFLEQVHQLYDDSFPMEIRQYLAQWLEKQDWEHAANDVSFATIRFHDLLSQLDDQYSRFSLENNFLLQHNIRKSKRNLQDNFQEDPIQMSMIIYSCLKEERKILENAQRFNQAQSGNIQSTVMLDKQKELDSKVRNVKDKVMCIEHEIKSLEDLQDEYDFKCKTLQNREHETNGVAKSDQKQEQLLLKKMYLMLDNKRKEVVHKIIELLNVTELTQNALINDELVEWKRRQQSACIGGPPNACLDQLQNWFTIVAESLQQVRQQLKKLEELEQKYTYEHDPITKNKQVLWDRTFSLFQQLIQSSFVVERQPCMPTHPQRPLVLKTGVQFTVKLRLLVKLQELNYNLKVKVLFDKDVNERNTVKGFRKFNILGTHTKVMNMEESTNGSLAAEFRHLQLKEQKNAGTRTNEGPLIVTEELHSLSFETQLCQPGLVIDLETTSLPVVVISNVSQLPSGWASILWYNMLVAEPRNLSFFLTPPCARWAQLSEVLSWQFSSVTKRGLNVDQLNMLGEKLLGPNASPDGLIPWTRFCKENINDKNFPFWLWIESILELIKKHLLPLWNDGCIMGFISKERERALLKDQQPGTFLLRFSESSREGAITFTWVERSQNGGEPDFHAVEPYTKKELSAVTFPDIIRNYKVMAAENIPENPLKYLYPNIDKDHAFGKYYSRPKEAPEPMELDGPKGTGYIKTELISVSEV

In data set [1] (dimer concentration at half saturation, strong site), GTTGTTCCGGGAAAAGG (double strand) [S1] had a Kd of 1 nM.

Consider “GTATTCCTGTAAGATCT (double strand) [Ly6E]”, for which, in data set [1] (dimer concentration at half saturation, weak site), the Kd came to 1 nM.

For the molecule “GATTTCCCGTAAATCAT (double strand) [cfosM67]”, the Kd in data set [1] (stated as same result for several oligonucleotides, complex half-life about 3 min (FIG. 5D)) was 1 nM.

On to “GTATTCCCGTCAATGCA (double strand) [cfosWT]”, for which the Kd in data set [1] (apparent Keq, dimer, 40 mM KCl, 10 mM MgCl2, 10 mM CaCl2, RT) stood at 1 nM.

B1: cfosM67 (dsDNA)
DNA 1: GATTTCCCGTAAATCAT
DNA 2: ATGATTTACGGGAAATC
As to B1, in data set [2], the binding result is recorded as “binds”.

B2: 2x cfosWT (10 bp spacing) (dsDNA)
DNA 1: AGTCAGTTCCCGTCAATGCATCAGGTTCCCGTCAATGCAT
DNA 2: ATGCATTGACGGGAACCTGATGCATTGACGGGAACTGACT
Take B2: the binding result in data set [3] and in data set [4] was “binds” each time.

B3: cfosWT (dsDNA)
DNA 1: GTATTCCCGTCAATGCA
DNA 2: TGCATTGACGGGAATAC
For the molecule B3, the Kd in data set [5] was ~1 nM.

B4: 2x cfosWT (15 bp spacing) (dsDNA)
DNA 1: AGTCAGTTCCCGTCAATGATCGCTACAGAGTTCCCGTCAAGCA
DNA 2: TGCTTGACGGGAACTCTGTAGCGATCATTGACGGGAACTGACT
Consider B4, for which the binding result in data set [6] is given as “binds”.
